Data reported in patent US20230265212A1 (OVERA, published 2023).
Where two headings read alike, the source gives them in different places. One block for each binder: values may come before it.

Columns and labels:
[1] = target: T1, BSA conjugated to SAS1B peptide A (CGGLEETPESSFLIEGDIIRPSPFRL) (human, conjugated to BSA); assay: biolayer interferometry (Octet), peptide-BSA conjugate
T1 construct: also called peptide-BSA conjugate
T1 peptide: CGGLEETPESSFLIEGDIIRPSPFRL
Procedure: Protein A-Purified antibodies were subjected to binding kinetic analysis via biolayer interferometry (Fortebio's Octet instrument) and the parameters of binding to peptide-BSA conjugate were determined (FIGS. 8 and 9). […] The dissociation constants (Kdis) from these three clones were too slow to be accurately fit (<1×10⁻⁶ sec⁻¹). With the caveat that Kdis were inaccurate due to these long residency times, KDs were calculated (FIGS. 8 and 9).

[2] = target: T2, BSA conjugated to SAS1B peptide A (CGGLEETPESSFLIEGDIIRPSPFRL) (conjugated to BSA); assay: BLI (Octet)
T2 peptide: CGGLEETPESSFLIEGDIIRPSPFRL

[3] = target: T1, BSA conjugated to SAS1B peptide A …; assay: colorimetric ELISA, BSA-peptide A coated, anti-mouse IgG-HRP
Source text: Colorimetric ELISA data comparing binding of naked OV119 to OV119 conjugated using stochastic chemistry (OV119-WT-OM) and AJICAP site-specific conjugation (OV119-CAP-DM1). The solid phase was coated with BSA conjugated to SAS1B peptide A ([…]). Normalized concentrations of the three antibody moieties were titrated by serial 5-fold dilution. A secondary antibody specific for mouse IgG and conjugated to horse radish peroxidase was then applied. After development using TMB substrate and reaction stopping with H₂SO₄, absorbance of light at 450 nm was measured and plotted against antibody concentration (FIG. 14).

[4] = target: T2, BSA conjugated to SAS1B peptide A …; assay: BLI (Octet)
[5] = target: peptide-BSA conjugate (respective antigens of the antibodies); assay: biolayer interferometry (Octet), peptide-BSA conjugate

B1: monoclonal antibody OV119 (antibody, V domains shown)
VH: EVQLQESGPELVKPGASVKISCKTSGYTFTEYPMHWVKQSHGKSLEWIGGINPNNGDTTYNQRFKGKATLTVDKSSGTAYMELRSLTSEDSAVYYCVPNFDWFAYWGQGTLVTVSP
VL: DVLMTQSPLSLPVSLGDQASISCRSSQSIVHSYGNTYLEWYLQKPGQSPKLLIYKVSNRFSGVPDRFSGSGSGTDFTLRISRVEAEDLGIYYCFQGSHLPFTFGGGTKLEIK
notes: Mouse hybridoma monoclonal IgG; also called naked OV119 (unconjugated)
koff [1]: < 1e-06 s⁻¹
Kd [2]: 0.0343 nM

B3: OV119 conjugated using stochastic chemistry (OV119-WT-OM) (antibody, V domains shown)
VH: EVQLQESGPELVKPGASVKISCKTSGYTFTEYPMHWVKQSHGKSLEWIGGINPNNGDTTYNQRFKGKATLTVDKSSGTAYMELRSLTSEDSAVYYCVPNFDWFAYWGQGTLVTVSP
VL: DVLMTQSPLSLPVSLGDQASISCRSSQSIVHSYGNTYLEWYLQKPGQSPKLLIYKVSNRFSGVPDRFSGSGSGTDFTLRISRVEAEDLGIYYCFQGSHLPFTFGGGTKLEIK
modifications: drug conjugated by stochastic chemistry; sites and drug load not stated
notes: Stochastic conjugate of OV119
binding result [3]: binds

B5: monoclonal antibody OV115 (antibody, V domains shown)
VH: DVQLQESGPGLVKPSQSLSLTCTVTGYSLTSDYAWNWIRQFPGKKVEWMGYLSYSGRTSYNPSLKSRISITRDTSRNQFFLQLNSVTTEDTATYYCARMGGNFGFDYWGQGTTLTVST
VL: GIVMTQAPLSLPVSLGDQASISCRSSQSLVHINGSTYLHWYLQKPGQSPNLLIYKVSYRFSGVPDRFSGSGSGTDFTLKITRVEAEDLGVYFCSQSTHVPLTFGSGTKLEIK
Kd [4]: < 0.001 nM

B6: monoclonal antibody OV123 (antibody, V domains shown)
VH: EVQLQESGPGLVKPSQSLSLTCTVTGYSITSDNAWNWIRQFPGNKLEWMGYISYSGRTSYNPSLKSRISVTRDTSKNRFFLQLNSVTTEDTATYYCARIGSYFTMDYWGQGTSVTVSS
VL: DVVMTQTPLSLSVGLGDQASISCRSSQSLVHINGSTYLHWYLQKPGQSPKLLIYKIANRFSGVPDRFSGSGSGTDFTLKISRVEAEDLGAYFCSQSTHVPLTFGAGTKLEIK
koff [5]: < 1e-06 s⁻¹
Kd [2]: 0.284 nM

Now from value to binder:

binding result [3]: binds
B2: OV119 conjugated to DM1 using AJICAP site-specific conjugation (antibody, V domains shown)
VH: EVQLQESGPELVKPGASVKISCKTSGYTFTEYPMHWVKQSHGKSLEWIGGINPNNGDTTYNQRFKGKATLTVDKSSGTAYMELRSLTSEDSAVYYCVPNFDWFAYWGQGTLVTVSP
VL: DVLMTQSPLSLPVSLGDQASISCRSSQSIVHSYGNTYLEWYLQKPGQSPKLLIYKVSNRFSGVPDRFSGSGSGTDFTLRISRVEAEDLGIYYCFQGSHLPFTFGGGTKLEIK
modifications: DM1 on the heavy chain by AJICAP site-specific conjugation via azide intermediates, 1 or 2 DM1 molecules per heavy chain (DAR 2, 3 and 4); residue not stated
notes: Antibody-drug conjugate of mouse IgG OV119; also called OV119-DM1; OV119-CAP-DM1

Kd [4]: 0.532 nM
B4: monoclonal antibody OV121 (antibody, V domains shown)
VH: EVQLQESGPGLVKPSQSLSLTCTVTGYSVTSDSAWNWIRQFPGNKLEWMGYISYSGSTTYNPSLKSRISITRDTSENQFFLQLRSVTTEDTATYYCARLGNLFTMDYWGQGTSVTVSA
VL: EILLTQSPVILAASPGEKVTITCSASSSLNYMNWYQQRPGSSPKIWIYGISNLASGVPARFSGSGSGTSFSFTINSMEAEDVATYYCQQRSSFPFTFGSGTKLEIK

koff [5]: < 1e-06 s⁻¹
Kd [2]: 0.115 nM
B7: monoclonal antibody OV124 (antibody, V domains shown)
VH: EVQLQESGAELMKPGASVKLSCKATGSIFNKYWIDWVRQRPGHGLEWIGEILPGSGSTIYSEKFKGKATITADTSSNTAYMQLSSLTSEDSAVYYCASRALDYWGQGTTLTVSS
VL: DVVMTQTPLSLPVSLGDQASISCRSSQSLIHSNGNTYLHWYLQKPGQSPKLLIYQVSNRFSGVPDRFSGSGSGTDFTLKISRVEAEDLGVYFCSQSTHVPYTFGGGTKLEIK
